The text below walks through data of patent US20090175796A1 (AGENSYS, published 2009).

Substitutions are numbered along the chain they refer to.

The target of this assay is T1, 24P4C12 protein (human) (human, UniProt Q53GD3 1-710).
T1 construct: whole, on cells; also called SLC44A4; CTL4
T1 sequence (looked up): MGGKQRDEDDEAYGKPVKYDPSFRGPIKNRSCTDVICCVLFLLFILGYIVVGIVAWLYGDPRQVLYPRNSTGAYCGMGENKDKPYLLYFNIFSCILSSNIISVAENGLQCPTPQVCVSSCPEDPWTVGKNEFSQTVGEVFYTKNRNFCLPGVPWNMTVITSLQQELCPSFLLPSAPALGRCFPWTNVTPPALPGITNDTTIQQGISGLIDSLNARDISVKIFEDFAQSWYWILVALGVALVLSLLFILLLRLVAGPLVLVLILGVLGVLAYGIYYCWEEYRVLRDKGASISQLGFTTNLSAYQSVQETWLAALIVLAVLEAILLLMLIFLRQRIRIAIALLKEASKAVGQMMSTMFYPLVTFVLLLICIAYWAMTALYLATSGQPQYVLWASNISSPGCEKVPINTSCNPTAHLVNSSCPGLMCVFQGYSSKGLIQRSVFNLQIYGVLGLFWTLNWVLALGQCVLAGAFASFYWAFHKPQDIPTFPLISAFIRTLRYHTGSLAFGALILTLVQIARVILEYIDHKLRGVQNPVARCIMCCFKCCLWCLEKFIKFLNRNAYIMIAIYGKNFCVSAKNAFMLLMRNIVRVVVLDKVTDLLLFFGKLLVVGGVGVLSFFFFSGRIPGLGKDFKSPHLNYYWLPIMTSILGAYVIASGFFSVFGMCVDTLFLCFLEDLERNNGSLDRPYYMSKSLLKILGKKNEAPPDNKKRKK
As to the kind of experiment: FACS saturation equilibrium binding on LNCaP cells.

Protocol: The affinity to LNCaP cells was determined by FACS using saturation equilibrium binding assay. […] At the end of incubation, the cells were washed with FACS Buffer and incubated with 100 ul of detection antibody (anti-hIgG-PE) for 45 minutes at 4° C., the cells were then washed with FACS Buffer, fixed with 2% Formaldehyde and analyzed using FACScan. FACS data were analyzed using CellQuest Pro software to acquire histogram and Mean Fluoresces Intensity (MFI) values of each point. The MFI values were used to calculate the binding affinity using non-linear regression using Prism4 software (Graphpad Software Inc. San Diego Calif.).

B1: Ha5-7acd2.1 (antibody, V domains shown)
VH: QVQLQESGPGLVKPSETLSLTCTVSGGSISSYYWSWIRQPPGKGLEWIGYIYYSGSTNYNPSLKSRVTISVDTSKNQFSLKLSSVTAADTAVYYCANTYYYGSGYGMDVWGQGTTVTVSS
VL: DIVMTQSPLSLPVTPGEPASISCRSSQSLLHSTGHNYLDWYLQKPGQSPQLLIYLGSIRASGVPDRFSGSGSGTDFTLKISRVEAEDVGVYYCMQALQTITFGQGTRLEIK
With B1, binding was put at a Kd of 1.95 nM.

B2: Ha5-7acd19.1 (antibody, V domains shown)
VH: B1 VH with Y50F, S54T
VL: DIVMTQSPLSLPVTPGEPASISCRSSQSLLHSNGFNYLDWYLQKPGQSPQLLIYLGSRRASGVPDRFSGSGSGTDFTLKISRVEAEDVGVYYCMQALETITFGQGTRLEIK
modifications: Labelled with Alexa Fluor 488 dye in the FIG. 14 experiment; the site is not stated and the letters do not carry it.
notes: copies: 2 + 2
For B2, the Kd stood at 0.19 nM.

B3: Ha5-8ac4.1 (antibody, V domains shown)
VH: QVQLQESGPGLVKPSETLSLTCTVSGGSISRYYWSWIRQPAGKGLERIGRIYTSGSTDYNPSLKSRVTMSVDTSKNQFSLKLRSVTAADTAVYYCARDLYSNGYWYFDLWGRGTLVTVSS
VL: QSVLTQPPSVSGAPGQRVTISCTGSSSNIGAGYDVHWYQQLPGTAPKLLIYGNSNRPSGVPDRFSGSKSGTSASLAITGLQAEDEADYYCQSYDSSLSGVVFGGGTKLTVL
notes: also called Ha5-8acd4.1
B3 showed a Kd of 0.07 nM.

B4: Ha5-1(5)1 (antibody, V domains shown)
VH: QVQLVESGGGVVQPGRSLRLSCGASGFTFSSYGMHWVRQAPGKGLEWVAVMSYDGSKKYYTDSVKGRFTISRDNSKNTLYLQMNSLRVEDTAVYYCARDGGDYVRYYYYGMDVWGQGTTVTVSS
VL: DIQMTQSPSSLSASVGDRVTITCRARQGITYHLAWYQQRPGKVPKLLIYDTSSLQSGVPSRFSGSGSGTDFTLTISSLQPEDVATYYCQRFNSAPLTFGGGTKVEIK
notes: also called HA5-1(5)1.1
The molecule B4 came in with an equilibrium dissociation constant (Kd) of 4.1 nM.

B5: Ha5-1(5)2.1 (antibody, V domains shown)
VH: B4 VH with G23A, Y59F, V88A, Y107H
VL: DIQMTQSPSTLSASIGDRVTITCRASQGISYYLAWYQQKPGKIPKLLIYDTSSLQSGVPSRFSGSRSGTDLSLTISSLQPEDVATYYCQRYDSAPLTFGGGTKVEIK
B5 gave an equilibrium dissociation constant (Kd) of 2.75 nM.

B6: Ha5-7acd7.1.1 (antibody, V domains shown)
VH: QVQLQESGPGLVKPSETLSLTCTVSGGSVSSGGYYWSWIRQPPGKGLEWIGYIYYSGGTNYNPSLKSRVTISVDTSKNQFSLKLTSVTAADTAVYYCARESGYCTNVACFPDAFDIWGQGTMVTVSS
VL: DVVMTQSPFSLPVTPGEPASISCRSSQSLLHSNGFNFLDWYLQKPGQSPQLLIYLGSIRASGVPDRFSGSGSGTDFTLKISRVEAEDVGVYYCMQALQTPLTFGGGTRVEIK
notes: copies: 2 + 2
B6 yielded a Kd of 1.85 nM.

B7: Ha5-7acd10.1 (antibody, V domains shown)
VH: QVQLVESGGGVVQPGRSLRLSCAASGFTFSSYGMHWVRQAPGKGLEWVAVIWYDGSNKYYADSVKGRFTISRDNSKNTLYLQMNSLRAEDTAVYYCARDRYSGYDYYYYYGMDVWGQGTTVTVSS
VL: DIQMTQSPSSLSASVGDRVTITCRASQGIYNYLAWFQQKPGKAPKSLIYAASSLHSGVPSKFSGGGSGTDFTLTISSLQPEDFATYYCQQYTIYPFTFGPGTKVDIK
notes: copies: 2 + 2
B7 gave a Kd of 1.26 nM.

B8: Ha5-11b1.1 (antibody, V domains shown)
VH: B7 VH with Y32H, R100Q, Y106L
VL: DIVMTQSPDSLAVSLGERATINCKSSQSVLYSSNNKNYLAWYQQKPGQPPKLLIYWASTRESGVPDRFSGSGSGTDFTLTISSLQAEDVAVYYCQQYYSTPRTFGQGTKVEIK
Take B8: the Kd stood at 3.4 nM.

B9: Ha5-7acd3.1 (antibody, V domains shown)
VH: B7 VH with A61T, Y107F
VL: B7 VL with K45R, G65S
Molecule B9 came in with a Kd of 4.4 nM.

B10: Ha5-7acd4.1 (antibody, V domains shown)
VH: B7 VH
VL: B7 VL with G28V, A50G, G65S, D70E, T97S
B10 displayed a dissociation constant Kd of 0.99 nM.

B11: Ha5-3(1,4)7.1 (antibody, V domains shown)
VH: B7 VH with D105G
VL: B7 VL with G28D, Y30S, G65S
modifications: Labelled with Alexa Fluor 488 in the FIG. 14 experiment. The site is not stated and the letters do not carry it.
In turn, B11 yielded a Kd of 5.5 nM.

B12: Ha5-7acd16.1 (antibody, V domains shown)
VH: B7 VH with Y32H, R100A
VL: B7 VL with N31T, A50G, H55Q, G65S, S76T, T97S
notes: also called HA5-acd16.1; copies: 2 + 2
Regarding B12, the Kd stood at 0.7 nM.

B13: Ha5-7acd20.1.1 (antibody, V domains shown)
VH: B7 VH with S56R, A61V, Y104S
VL: B7 VL with H55Q, G65S, D70V, I93V, I106F
Molecule B13 gave a Kd of 1.1 nM.

B14: Ha5-3(3,5)37.1 (antibody, V domains shown)
VH: QVQLQESGPGLVKPSETLSLTCTVSGGSISSYYWSWIRQPPGKGLEWIGYIYYSGSTNYNPSLKSRVTISVDTSKNQFSLKLNSVTAADTAVYYCARGYYYGSESPYGMDVWGQGTTVTVSS
VL: DIVMTQSPLSLPVTPGEPASISCRSSQSLLHSNGHNYLDWYLQKPGQSPHLLIYLGSNRDSGVPDRFSGSGSGTDFTLKISRVEAEDVGVYYCMQALQIPCSFGQGTKLEIK
As to B14, the dissociation constant Kd came to 0.45 nM.

B15: Ha5-7be20.1 (antibody, V domains shown)
VH: QVQLQESGPGLVKPSETLSLTCTVSGGSISSYYWSWIRQPPGKGLEWIGYIYYSGSTNYNPSLKSRVTISVDTSKNQFSLKLSSVTAADTAVYYCARGYYYGSGSYGLDVWGQGTTVTVSS
VL: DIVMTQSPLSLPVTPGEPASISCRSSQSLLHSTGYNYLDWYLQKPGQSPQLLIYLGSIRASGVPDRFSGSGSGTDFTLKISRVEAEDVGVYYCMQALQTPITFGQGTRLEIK
In turn, B15 had a Kd of 3.2 nM.

B16: Ha5-7be31.1 (antibody, V domains shown)
VH: B15 VH with S103A, L108M
VL: B6 VL with V2I, F9L, N33T, F37Y, A85T, A96T, L101I, G105Q, V109L
notes: copies: 2 + 2
Regarding B16, the affinity, expressed as Kd, was 4.15 nM.

The term Kd denotes the concentration at which binding is half-saturated. A lower Kd goes with tighter binding.
